These results are taken from patent publication CN116143909A.

For assay [1], the target named is HIV-1 P24抗原(购自菲鹏) (HIV-1) (UniProt P04591). Briefly: indirect ELISA, P24 coated at 1 ug/ml, antibody at 31.25 ng/ml, goat anti-human IgG-HRP. (In general: ELISA stands for enzyme-linked immunosorbent assay.)
The target is the same in assay [2]. Description: indirect ELISA, P24 coated at 1 ug/ml, antibody at 125 ng/ml, goat anti-human IgG-HRP.
The target is the same in assay [3]. Description: indirect ELISA, P24 coated at 1 ug/ml, antibody at 250 ng/ml, goat anti-human IgG-HRP.
For assay [4] the target is unchanged. Briefly: indirect ELISA, P24 coated at 1 ug/ml, antibody at 62.5 ng/ml, goat anti-human IgG-HRP.
For assay [5] the target is unchanged. Briefly: indirect ELISA, P24 coated at 1 ug/ml, antibody at 15.625 ng/ml, goat anti-human IgG-HRP.
For assay [6] the target is unchanged. Briefly: indirect ELISA, P24 coated at 3 ug/ml, supernatant of transiently transfected CHO cells diluted 1000-fold, goat anti-human IgG-HRP.

对照抗体 (antibody): the OD450 (ref 630 nm) in assay [1] was 0.537 OD; in assay [2], 1.28 OD; in assay [3], 1.57 OD; in assay [4] it was 0.756 OD; in assay [5], 0.337 OD.

B1: 6F13RMb1 (antibody, human IgG1, kappa, V domains shown)
VH: QVQLVQSGAEVKKPGSSVKVSCKASGGTFSSYAISWVRQAPGQGLEWMGGSIPIFGTTHYAQKFQGRVAIIVDESTSTSYMELSSLRSDDTAAYYCARAATAIFGVPRNNFYAMEVWGQGTTVTVSS
VL: DIVMTQSPLSLSVTPGEPASISCRSSQSILHSNGYNYLDWYLQRPGQSPKLLIYIGSTRASGVPDRFSGSGSGTDFTLKISRVEAEDVGVYYCMQAVQTFFGPGTKVDLKR
Consider B1, for which the OD450 (ref 630 nm) in assay [1] was 0.673 OD; in assay [6], more than 1 OD; in assay [2] it was 1.42 OD; in assay [3], 1.52 OD; in assay [4] it was 1.03 OD; in assay [5], 0.455 OD.
